In patent publication US20260167679A1, “FUSION PROTEIN TARGETING MITOCHONDRIA, METHOD OF MAKING AND USE THEREOF” (UNIVERSITY OF ROCHESTER, priority 2020, published 2026):

Tested on: isolated C. elegans mitochondria
Assay: Mitochondrial membrane potential measurement (TMRE) in isolated mitochondria
Format: biochemical, Caenorhabditis elegans
Conditions: mtON activation (+ATR, +light), rotenone, no added substrate, non-phosphorylating
Protocol: Isolated mitochondria at 0.5 mg/ml were stirred in mitochondrial respiration buffer (MRB: 120 mM KCl, 25 mM sucrose, 5 mM MgCl2, 5 mM KH2PO4, 1 mM EGTA, 10 mM HEPES, 1 mg/ml FF-BSA, pH 7.35) at 25° C. in the presence of 2 μM rotenone and 5 mM succinate where indicated. 300 nM tetramethylrhodamine ethyl ester (TMRE, Thermo Fisher, T669) was added to observe mitochondrial membrane potential in quench mode. Under quenching conditions, TMRE fluorescence is low in the presence of a AWm. Upon addition of a protonophore (e.g., FCCP), TMRE will exit mitochondria and dequench and increase total fluorescence. TMRE signal was measured by Cary Eclipse Fluorescence Spectrophotometer (Agilent Technologies) using a 335-620 nm excitation filter and a 550-1,100 nm emission. […] Increasing illumination time exposed mitochondria to more photons (calculated as fluence, J/cm^2). […] The average fluorescence intensity after addition of 2 μM FCCP (maximum fluorescence in quench mode) was subtracted from the starting test condition to give a change in fluorescence corresponding to changes in ΔΨm (ΔF for conditions without succinate, and ΔFmax for conditions with succinate). To represent polarization of the ΔWm, the ratio of change in fluorescence (DF, FCCP fluorescence minus experimental fluorescence) was used to the maximum change in fluorescence generated by succinate-driven Δψm (ΔFmax).

B1: mtON: fusion of the 187 N-terminal amino acids of mouse IMMT1 to the light-activated proton pump (Mac) from Leptosphaeria maculans (protein)
chain: MLRACQLSGVTVAAQSCLCGKFVLRPLRPCRRYSTSSSSGLTAGKIAGAGLLFVGGGIGGTILYAKWDSHFRESVEKTIPYSDKLFGMVLGSAPYTVPLPKKPVQSGPLKISSVSEVMKDSKLPVAQSQKTKGDTPASAASTGAAQIISAAGDTLSVPAPAVQHEDTIKTECPNTNEGKSTSETTEEPAGLIVDQFEEVLMKTSQLFPLPTATQSAQPTHVAPVPTVLPDTPIYETVGDSGSKTLWVVFVLMLIASAAFTALSWKIPVNRRLYHVITTIITLTAALSYFAMATGHGVALNKIVIRTQHDHVPDTYETVYRQVYYARYIDWAITTPLLLLDLGLLAGMSGAHIFMAIVADLIMVLTGLFAAFGSEGTPQKWGWYTIACIAYIFVVWHLVLNGGANARVKGEKLRSFFVAIGAYTLILWTAYPIVWGLADGARKIGVDGEIIAYAVLDVLAKGVFGAWLLVTHANLRESDVELNGFWANGLNREGAIRIGEDDGAR
modifications: Synthetic Complete mtON fusion protein sequence
polarization of Δψm (TMRE): polarize the Δψm as much as ETC-driven respiration
